Experimental data reported in patent US20190040107.
Where a chain is given by its changes, count along the chain named. Numbers in names are those of the source.

T1: astexin-1
T1 chain: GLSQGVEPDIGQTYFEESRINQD

T2: astexin-2 ΔC3 (lassoed, threaded)
T2 chain: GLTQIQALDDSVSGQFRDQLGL

T3: astexin-2 ΔC4 (lassoed, threaded)
T3 chain: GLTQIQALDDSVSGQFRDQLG

T4: astexin-3 (lassoed, full-length)
T4 chain: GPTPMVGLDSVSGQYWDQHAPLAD

T5: astexin-3 ΔC1
T5 chain: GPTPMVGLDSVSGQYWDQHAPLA

T6: astexin-3 ΔC2
T6 chain: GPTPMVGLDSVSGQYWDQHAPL

T7: unthreaded astexin-2 ΔC3
T7 chain: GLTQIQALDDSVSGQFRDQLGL

T8: unthreaded astexin-2 ΔC4
T8 chain: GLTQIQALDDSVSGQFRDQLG

B1: C-terminally His-tagged AtxE2 (protein)
chain: AAREAPPVTPEVLVRLADIGTMSASETTPLLSLSPDGRYVAFQVRQADPVTNLNVFRMVVKATDGATDAIDVDVGGEYLFWTIPSWGYARNAPSGANLTIQPRWSPSGTHLAYLRQDQGRVRVWRASVKGEGASPVIEDAYDIEDVQWLDDNTLIYSGRPGFVEAEAEIEREGRRGWVYDERFHPLTGARPRVLEPISIVYQVLDLKTGTRRAATPTEVARLREKPDPLRAMVGRTTFSVSRTDPQNINAPTTLVARRGEGEPVRCDEEACQNITRMWGDETANVLYFLRREGWASNEMALYRMPADALKPVRIWHATGLLQGCERQAKRLICAQESALQPRRLVTLNLTSGQMSPLYDPNPDLSRYRLPKVERLTLRNRNGIEVFSDLVLPPDYQLGTRLPLVIVQYSSRGFLRGGTGDENPILPLATAGFAVLSFHSPRSEASYQRFTSPIAQSKAEYSNWRNRWNILHTLEDLIDDLDRRGVIDPARVGLTGLSDGATTVHFGLINSHRFAAAVTSSCCTDSFTASVMNGPRISGALKAYGIETDQADDGPFWAATSFVVNASRLDTPLLIQSADEEYLGALPGFTALQQARKPVELIIYPNEHHVKWQPAHRLAVYNRTIDWFRFWLMDQSDPAPDKAAQYDRWRALRALRQKSPSPTPAP
B2: His-tagged S527A mutant of AtxE2 (protein)
chain: B1 chain with S497A

Assays:
astexin-1 = molecular target: T1, astexin-1
[1] = molecular target: T2, astexin-2 ΔC3 (lassoed, threaded)
[2] = molecular target: T3, astexin-2 ΔC4 (lassoed, threaded)
[3] = molecular target: T4, astexin-3 (lassoed, full-length)
astexin-3 ΔC1 = molecular target: T5, astexin-3 ΔC1
astexin-3 ΔC2 = molecular target: T6, astexin-3 ΔC2
unthreaded astexin-2 ΔC3 = molecular target: T7, unthreaded astexin-2 ΔC3
unthreaded astexin-2 ΔC4 = molecular target: T8, unthreaded astexin-2 ΔC4

Row | Protein | hydrolysis (HPLC retention time, MS) after 6 hours with 860 nM AtxE2 (astexin-1) | hydrolysis (HPLC retention time) of purified peptide with 424 nM AtxE2 [1] | hydrolysis (HPLC retention time, MALDI MS) after 6 hours with 860 nM AtxE2 [1] | hydrolysis (HPLC retention time, MALDI MS) after 6 hours with 860 nM AtxE2 [2] | Km [3] | hydrolysis (HPLC retention time, MALDI MS) after 6 hours with 860 nM AtxE2 [3] | kcat [3] | kcat/Km [3] | hydrolysis (HPLC retention time, MALDI MS) after 6 hours with 860 nM AtxE2 (astexin-3 ΔC1) | hydrolysis (HPLC retention time, MALDI MS) after 6 hours with 860 nM AtxE2 (astexin-3 ΔC2) | hydrolysis (HPLC retention time) in lysate extract treated with AtxE2 (unthreaded astexin-2 ΔC3) | hydrolysis (HPLC retention time) of purified, heat-treated peptide with 424 nM AtxE2 (unthreaded astexin-2 ΔC3) | hydrolysis (HPLC retention time) in lysate extract treated with AtxE2 (unthreaded astexin-2 ΔC4) | activity toward astexin-3 in vitro [3]
1 | B1 | the retention time of astexin-1 did not shift after incubation with AtxE2 and no molecular weight difference was observed in the MS | only the threaded species exhibited a change in retention time consistent with hydrolysis of the isopeptide bond | an increase of 18 mass units for all astexin-2 and astexin-3 species, corresponding to the addition of a water molecule via the cleavage of a single amide bond | an increase of 18 mass units for all astexin-2 and astexin-3 species, corresponding to the addition of a water molecule via the cleavage of a single amide bond | Km equal to 131 µM | an increase of 18 mass units for all astexin-2 and astexin-3 species, corresponding to the addition of a water molecule via the cleavage of a single amide bond | kcat equal to 0.38 s^-1 | kcat/Km value for AtxE2 to be 2.9×10^3 M^-1 s^-1 | an increase of 18 mass units for all astexin-2 and astexin-3 species, corresponding to the addition of a water molecule via the cleavage of a single amide bond | an increase of 18 mass units for all astexin-2 and astexin-3 species, corresponding to the addition of a water molecule via the cleavage of a single amide bond | the retention times for these unthreaded species did not change after incubation with AtxE2 | only the threaded species exhibited a change in retention time consistent with hydrolysis of the isopeptide bond | the retention times for these unthreaded species did not change after incubation with AtxE2 | –
2 | B2 | – | – | – | – | – | – | – | – | – | – | – | – | – | AtxE2 S527A had no activity toward astexin-3
